We go through 167 variants from the RNAGym collection of RNA variant scans (doi:10.7554/elife.80360).

Sequences and labels used below:
B1: HDV Ribozyme (parent)
chain: GGCCGGCAUGGUCCCAGCCUCCUCGCUGGCGCCGGCUGGGCAACAUUCCGAGGGGACCGUCCCCUCGGUAAUGGCGAAUGGGACCCA

In the data set the parent is B1. Kind of data set: self-cleavage, relative activity (ratio to wild type); higher = more cleavage; co-transcriptional.
Regarding A8C G81C, the self-cleavage is 0.166.
A8C G81U: the self-cleavage came to 0.201.
As to A8C C24A, the self-cleavage is 0.434.
As for A8C C24U, the figure is 0.396.
Regarding A8C G74C, the self-cleavage is 0.269.
Turning to A8C G74U, the self-cleavage is 0.475.
With C7U G31A, the self-cleavage came out at 0.876.
Next, C7U G31C: 0.727; A8G G50U: 0.984; C7U U20G: 0.133.
As for C7U U20C, the self-cleavage amounted to 0.
Regarding C7U U20A, the self-cleavage is 0.0594.
On to A8C A77G, for which the self-cleavage was 0.798.
As to C7U C14G, the self-cleavage stood at 0.308.
As to A8C A70C, the self-cleavage was 0.612.
As to C7U U47A, the self-cleavage is 0.554.
On to C7U U47G, for which the self-cleavage was determined as 0.9.
A8G G31U: the self-cleavage is 0.587.
As for A8G G31C, the self-cleavage came to 0.145.
Consider A8G G31A, for which the self-cleavage worked out at 0.415.
On to C7U C66A, for which the self-cleavage stood at 0.776.
For C7U C66G, the self-cleavage is 0.974.
On to A8G A87U, for which the self-cleavage was 0.991.
For A8C C85G, the self-cleavage came out at 0.798.
As for A8C C85A, the figure is 0.831; as for A8G C14A, 0.0791.
For A8G C14U, the self-cleavage is 0.997.
Regarding A8C C21A, the self-cleavage was determined as 0.0449.
Next, A8C G28A: 0.252; A8C G28U: 0.0978.
As to A8C C15G, the self-cleavage stood at 0.378.
Turning to A8C C15U, the self-cleavage was 0.604.
With A8G A16G, the self-cleavage came out at 1.14.
As to A8G C33G, the self-cleavage was 0.0755.
As for C7U G40A, the figure is 0.752; as for C7U G40C, 0.166; as for A8G C84U, 0.864.
Turning to A8G C84G, the self-cleavage amounted to 0.396.
On to A8C G54C, for which the self-cleavage came out at 0.746.
As to A8G A56G, the self-cleavage came out at 0.719.
Consider A8C G55U, for which the self-cleavage came out at 0.831.
Next, A8C G55C: 1.03.
Next, A8G C22A: 0.101.
For A8G A83C, the self-cleavage is 0.262.
As for A8G A83G, the figure is 0.88; as for A8G G74C, 0.0639; as for A8G G74A, 0.256.
As for A8G A71G, the figure is 0.739; as for A8G A71U, 0.902.
For A8G A71C, the self-cleavage was found to be 0.447.
With A8C A56G, the self-cleavage worked out at 0.939.
For A8C C18U, the self-cleavage amounted to 0.369.
In the case of A8C C18G, the self-cleavage came out at 0.0875.
As for C7U G76C, the self-cleavage came out at 0.815.
Consider A8C U23G, for which the self-cleavage is 0.332.
Take A8C G17C: the self-cleavage is 0.
For A8C A78G, the self-cleavage worked out at 0.35.
With A8C A78U, the self-cleavage worked out at 0.119.
Consider C7U C48A, for which the self-cleavage turned out to be 0.767.
Regarding C7U C48U, the self-cleavage stood at 0.997.
In the case of C7U C24A, the self-cleavage was determined as 0.256.
Take C7U C49G: the self-cleavage is 0.665.
Turning to A8C U79C, the self-cleavage worked out at 0.181.
In the case of A8C U79G, the self-cleavage was found to be 0.462.
As to A8C C19U, the self-cleavage is 0.0739.
As to A8C C19G, the self-cleavage was 0.115.
As to C7U C30A, the self-cleavage turned out to be 0.369.
For C7U C30G, the self-cleavage is 0.
Consider C7U G17A, for which the self-cleavage came out at 0.332.
As for A8C U20C, the figure is 0; as for A8C C86A, 0.72.
As for A8C C86U, the figure is 0.862; as for C7U C86G, 0.617; as for C7U C86A, 0.872.
Turning to C7U C86U, the self-cleavage was determined as 0.678.
As for A8C C30G, the self-cleavage worked out at 0.
For the variant A8G G80U, the self-cleavage is 0.173.
With C7U G53C, the self-cleavage was 1.12.
Consider A8G C26U, for which the self-cleavage is 1.16.
Consider A8G C26A, for which the self-cleavage amounted to 1.11.
For the variant A8C U27G, the self-cleavage was determined as 0.88.
Take A8C U27C: the self-cleavage worked out at 0.739.
Next, A8C G11A: 0.229.
On to A8C G11C, for which the self-cleavage was found to be 0.151.
For the variant A8G G59A, the self-cleavage worked out at 0.743.
Regarding A8G G38C, the self-cleavage is 0.138.
On to A8C G52A, for which the self-cleavage is 0.831.
Take A8C G52U: the self-cleavage was 0.566.
Regarding C7U G11C, the self-cleavage is 0.119.
Turning to A8G A77U, the self-cleavage amounted to 0.0978.
For A8G A77G, the self-cleavage turned out to be 0.867.
As for A8C G68U, the self-cleavage was 0.943.
Turning to A8C G68A, the self-cleavage turned out to be 0.554.
As for C7U C41A, the self-cleavage was determined as 0.571.
Turning to C7U U69G, the self-cleavage came to 0.855.
With A8C C49G, the self-cleavage came to 0.475.
Turning to A8C C49U, the self-cleavage was 0.567.
Turning to A8C C75G, the self-cleavage amounted to 0.277.
Take A8C C75A: the self-cleavage was 0.128.
Consider C7U C58G, for which the self-cleavage came out at 1.02.
Turning to C7U U72C, the self-cleavage is 0.268.
Take C7U U72G: the self-cleavage was determined as 0.332.
For the variant C7U U72A, the self-cleavage turned out to be 0.604.
Consider A8G C19A, for which the self-cleavage worked out at 0.107.
In the case of C7U G82A, the self-cleavage came to 0.251.
With C7U G82U, the self-cleavage came to 0.0678.
As for A8C G76U, the figure is 0.785; as for A8C G76A, 0.95.
Take A8C A42G: the self-cleavage stood at 0.462.
Consider A8G C49U, for which the self-cleavage is 0.692.
For the variant A8G C49G, the self-cleavage came to 1.27.
As for A8G G10U, the figure is 0.431.
A8G G40U: the self-cleavage worked out at 0.554.
On to A8G G40C, for which the self-cleavage came out at 0.369.
In the case of A8C C32A, the self-cleavage was determined as 0.119.
In the case of A8C G29A, the self-cleavage was 0.18.
Next, A8C G29C: 0; A8C G29U: 0.151; C7U G50C: 0.689.
Consider A8C A45C, for which the self-cleavage is 0.156.
Next, A8C A45U: 0.429; A8G G81A: 0.0875; A8G A42U: 0.317.
As to A8G A42G, the self-cleavage turned out to be 0.68.
Consider A8G U9A, for which the self-cleavage was 0.506.
As for A8C U65A, the self-cleavage was 0.76.
As for A8C U65G, the figure is 0.985.
Take A8C U65C: the self-cleavage worked out at 0.684.
A8C C64G: the self-cleavage was found to be 0.415.
Turning to A8C C64A, the self-cleavage was found to be 0.639.
For A8C C64U, the self-cleavage is 0.923.
As for A8G C75U, the self-cleavage came out at 0.133.
As for A8G C75G, the figure is 0.525.
Next, C7U C84U: 0.686; A8C G59C: 0.923; A8C G59A: 1.07.
On to A8G C63A, for which the self-cleavage came to 1.22.
As for A8G C63G, the self-cleavage stood at 1.11.
On to A8C G50C, for which the self-cleavage amounted to 1.04.
Regarding A8C G50U, the self-cleavage was 0.864.
For the variant A8C C33A, the self-cleavage was found to be 0.0504.
Take A8C C33U: the self-cleavage was found to be 0.554.
For the variant C7U C61A, the self-cleavage was 0.87.
Consider C7U U37A, for which the self-cleavage turned out to be 0.0739.
Regarding C7U U37C, the self-cleavage worked out at 1.14.
Consider C7U C75U, for which the self-cleavage was 0.0978.
As for C7U G25U, the figure is 0.203; as for C7U G55U, 0.815; as for C7U G29U, 0.157.
For C7U G29C, the self-cleavage was 0.185.
Consider C7U G29A, for which the self-cleavage was 0.0906.
Regarding A8C A51G, the self-cleavage worked out at 0.997.
Consider A8C A51C, for which the self-cleavage was 0.802.
In the case of C7U C22G, the self-cleavage is 0.0678.
On to C7U C22A, for which the self-cleavage came to 0.261.
As for A8C G35U, the figure is 0.269.
Next, A8C G35C: 0; A8C C63U: 0.633; A8G G73A: 0.369.
Consider A8C U60C, for which the self-cleavage turned out to be 0.489.
Next, A8C U60A: 0.831; C7U C18U: 0.277.
As to A8C U47A, the self-cleavage stood at 0.519.
In the case of A8C U9G, the self-cleavage amounted to 0.692.
A8C U9A: the self-cleavage worked out at 0.755.
For the variant A8C U9C, the self-cleavage was 0.962.
Next, A8G G34A: 0.095.
